Test results reported in patent US20060015949A1.

Experiments:
[1] = target: recombinant soluble human CD4 (human) (UniProt P01730); experiment: BIAcore, rCD4 coupled to chip, mAb flowed over (avidity)
[2] = target: recombinant soluble human CD4 (human) (UniProt P01730); experiment: SPR, sCD4 amine-coupled to sensor chip, mAb flowed over
[3] = target: native human CD4 on the cell surface (human) (UniProt P01730); experiment: flow cytometry, serial dilutions on SupT1 cells, half-maximal fluorescence
[4] = target: recombinant soluble human CD4 (human) (UniProt P01730); experiment: BIAcore on rCD4 (column repeats Table 19)
[5] = target: recombinant soluble human CD4 (human) (UniProt P01730); experiment: BIAcore, mAb captured by goat anti-human IgG Fc on chip, rCD4 flowed over (affinity)
[6] = target: recombinant soluble human CD4 (human) (UniProt P01730); experiment: ratio of Ka on rCD4 (BIAcore) to Ka on nCD4 (SupT1 flow cytometry)

## Leu3a (antibody)
[1]
  Ka: 3.7e+10 M⁻¹
  koff: 4.2e-06 s⁻¹
  kon: 150000 M⁻¹ s⁻¹
[2]
  Ka: 3.7e+10 M⁻¹
  koff: 0.00042 s⁻¹
  kon: 150000 M⁻¹ s⁻¹

## chimeric Leu3a (antibody)
[3]
  Ka: 5.6e+09 M⁻¹
[4]
  Ka: 3.4e+10 M⁻¹
[5]
  Ka: 6.6e+08 M⁻¹
  koff: 0.00023 s⁻¹
  kon: 150000 M⁻¹ s⁻¹
[1]
  Ka: 3.4e+10 M⁻¹
  koff: 1.2e-05 s⁻¹
  kon: 400000 M⁻¹ s⁻¹
[6]
  Ratio of Ka (rCD4/nCD4): 6.1
